The text below walks through data of patent US20060009452A1, “Therapeutic targeting of PARC/CCL18 and its signaling in pulmonary fibrosis” (priority 2004, published 2006).

“Also recorded” adds a separate entry of the source.

One assay relates to Smad3/4. Kind of assay: EMSA of nuclear lysates with Smad3/4 probe. The format is cell-based, human.
For assay [1], the system named is lung and dermal fibroblast lines. Kind of assay: CellTiter AQueous 96 fibroblast proliferation assay. The format is cell-based, human. Conditions: for maximum increase in fibroblast proliferation over non-stimulated control: Days 7 and 8, rhPARC 1-3,000 ng/ml. On the procedure:
Cell Proliferation Assays. For CellTiter AQueous 96 Non-Radioactive Cell Proliferation Assay (Promega, Madison, Wis.), fibroblasts were plated in low-serum medium at 2×10^3 cells/well in 96-well flat-bottom tissue culture plates (Costar) in 0.2-ml cultures and stimulated with increasing concentrations of rhPARC in quadruplicates. Low-serum tissue culture medium alone was the negative control. The Cell-Titer proliferation assay was performed according to the manufacturer's instructions, after the fibroblasts were incubated with test substances for 3-8 d. Data were expressed as mean OD490±SD of quadruplicate cultures and analyzed using one-way ANOVA with post hoc testing.

In a further assay the test system is Sp1-sensitive promoter. Kind of assay: Luciferase assay of Sp1-sensitive promoter (pGAGC6) in transfected lung fibroblasts. The format is cell-based, human. Conditions: pGAGC6-transfected primary lung fibroblasts. On the procedure:
FIG. 16. Stimulation with PARC increases Sp1 promoter-stimulating activity in cultured primary lung fibroblasts. Luciferase activity was measured in a chemiluminescence-based assay in cell lysates from the following fibroblast cultures: mock-transfected non-stimulated (Medium), pGAM-transfected non-stimulated (pGAM Ctrl), pGAM-transfected PARC-stimulated (PGAM PARC), pGAGC6-transfected non-stimulated (pGAGC6 Ctrl), and pGAGC6-transfected PARC-stimulated (pGAGC6 PARC).

The next assay deals with ERK1/2. Kind of assay: Immunoblotting for phosphorylation of ERK1/2. The format is cell-based, human. Conditions: lung fibroblasts LF1/LF2 activated with rhPARC.
In another assay the test system is TGF-β1 mRNA. Kind of assay: Real-time PCR for TGF-β mRNA. Conditions: LF1 and LF4, 300 ng/ml rhPARC. The format is cell-based, human. On the procedure:
Real-time PCR Quantification of Steady-State mRNA Levels. Total RNA was purified from fibroblast cultures using Trizol reagent (Invitrogen, Carlsbad, Calif.) following the manufacturer's recommendations. First-strand cDNA was synthesized in a 20-μl reaction mixture containing 1 μg of total RNA, 50 mM Tris HCl (pH 8.3), 75 mM KCl, 3 mM MgCl2, 0.5 mM of each dNTP, 1 μM of random hexamer primers, and 400 units of Moloney murine leukemia virus RT (Invitrogen). The reaction mixture was incubated at 37° C. for 60 minutes, then heated at 95° C. for 5 minutes. Real-time PCR was performed on a LightCycler system (Roche, Indianapolis, Ind.). The primers, PCR protocol, and product quantification for the internal control 18S ribosomal RNA were exactly as reported previously (Schmittgen T D et al.). All other primers and hybridization probes were designed and prepared by TIB Molbiol (Adelphia, N.J.). […] The following PCR conditions were used: activation at 95° C. for 10 min, followed by 35 cycles of denaturation at 95° C. for 3 s, primer annealing at 50° C. for 5 s, fluorescence readout (F12/F11) at 50° C., and extension at 72° C. for 15 s. Fold difference in gene expression relative to 18S rRNA between treated and untreated cultures was calculated using the 2-ΔΔCT method (Livak K J et al.).
In general terms: Real-time PCR tracks product formation cycle by cycle.

A further assay concerns mouse fibroblasts. Kind of assay: Collagen Western blot in wild-type and Smad3-/- mouse fibroblasts. The format is cell-based. Here is the method:
Collagen was quantified by Western blotting and the identity of collagen bands was confirmed by sensitivity to pepsin and collagenase digestion as described elsewhere in Atamas et al. (Am. J. Respir. Cell. Mol., 29:743-749 (2003)). In these assays, pro-collagen appears as a single or double band with a molecular weight of approximately 175 kDa (4,27,28).
Transient transfection with 1 μg of Sp1 and Smad3 dominant negative mutant constructs abrogated basal and PARC-stimulated upregulation of collagen production, whereas transfection with 0.2 μg of the constructs inhibited the response to PARC stimulation but not basal collagen production (FIG. 19A,B).
In general terms: In western blotting, separated proteins are transferred to a membrane and probed.

The test system of a further assay is α2(I) collagen mRNA. Kind of assay: Real-time PCR for α2(I) collagen mRNA relative to 18S rRNA. The format is cell-based, human.
A further assay deals with Sp1. Kind of assay: EMSA of nuclear lysates with Sp1-specific probe. The format is cell-based, human. The conditions noted are these: consensus and collagen α2(I) promoter-specific probes. On the procedure:
NushifTM kits for EMSA and supershift assays and reagents for preparation of nuclear extracts were purchased from Active Motif (Carlsbad, Calif.); the procedures were performed according to manufacturer's recommendations, including end-labeling of the specific probes with [γ-^32P]ATP. In addition to the [γ-^32P]ATP-labeled Sp1 consensus probe ([NT] ID NO:5), wild-type and mutant ([NT] ID NO:6) oligo competitors, and an Sp1-specific antibody from the kit, an oligonucleotide representing the Sp1-binding region in the α2(I) collagen promoter ([NT] ID NO:7) was used as a probe (after end-labeling with [γ-^32P]ATP) and as a cold competitor. […] Nuclear extracts were adjusted for total protein content to ensure equal loading. Gels were exposed to a Phosphorimager screen and scanned using a Storm Phosphorimager (Molecular Dynamics); band densities were analyzed with ImageQuant software.
(In general: A gel shift assay detects complexes by their altered migration in electrophoresis.)

B1: rhPARC: Recombinant human pulmonary and activation-regulated chemokine (CC chemokine CCL18), purchased from R&D Systems and Cell Sciences (protein)
chain: AQVGTNKELCCLVYTSWQIPQKFIVDYSETSPQCPKPGVILLTKRGRQICADPNKKWVQKYISDLKLNA
As to B1, the “density of the specific Smad3 band relative to the density at time 0” value in the assay on Smad3/4 (LF1, LF2, LF4, rhPARC-stimulated samples) is reported as 0.9-1.2 fold. Also, the “DNA-binding activity of Smad3/4 (EMSA)” value in the assay with Smad3/4 (after activation with PARC) is reported as “No increase; also recorded: but not Smad3/4”. Besides, the “maximum increase in fibroblast proliferation over non-stimulated control” value in assay [1] (dermal lines) is listed as 45-50%; in assay [1] (lung lines), 20-25%. Besides, the “increase in fibroblast proliferation” value in assay [1] (summary statement) is listed as 25-50%. Also, the “Sp1 promoter-stimulating activity (luciferase)” value with Sp1-sensitive promoter is “leads to activation of the Sp1-sensitive promoter”. In the assay with ERK1/2, the “phosphorylation of ERK1/2” value is “increased; also recorded: activated”. Moreover, in the assay with TGF-β1 mRNA, the “steady-state levels of TGF-β mRNAs, treated versus control” value was “no difference in TGF-β1 mRNA levels”. Also, the “collagen production response to PARC stimulation” value in the assay with mouse fibroblasts (Smad3-/- mouse fibroblasts) is reported as “did not”; in the assay with mouse fibroblasts (wild-type mouse fibroblasts) it was “responded to PARC stimulation by upregulating collagen production”. For the same molecule, in the assay on α2(I) collagen mRNA (LF1 and LF2, 300 ng/ml rhPARC, 3 and 6 h), the “steady-state collagen α2(I) mRNA level versus control” value is “transiently increased; also recorded: higher than in control cells”. In addition, the “higher concentration of collagen mRNA in treated samples versus control” value in the assay with α2(I) collagen mRNA (lung fibroblasts, 300 ng/ml rhPARC, 6 h) was “approximately 4 fold”. In addition, the “DNA binding by Sp1 (EMSA)” value in the assay with Sp1 is reported as “three-fold increase; also recorded: activates transcription factor Sp1”.
